What was measured:
[1] = target: the molecule itself; assay: size exclusion, Superdex 75 (self-association)
Protocol: GST-based constructs were expressed in E. coli strain BL21 DE3 RIL (Stratagene). Unlabeled proteins were produced by overnight expression at 17° C. in LB medium containing 1 mM IPTG and 200 μg/mL ampicillin. Isotope-labeled proteins were produced by overnight expression at 17° C. in M9 supplemented with ¹⁵NH₄Cl, ¹³C-labeled D-glucose and ²H water as previously described by Devany et al., Protein Sci. 13, 2252-259 (2004). Proteins were purified by sonicating cell pellets in lysis buffer [100 mM NaCl, 50 mM Na₂HPO₄/NaH₂PO₄ (pH7.0), protease inhibitor (Roche)], separating the soluble (supernatant) and insoluble (pellet) fractions by centrifugation (12,110 g, 20 min, 4° C.), binding to glutathione sepharose (GE healthcare), washing with lysis buffer and eluting with PreScission protease (GE Healthcare) in 1 mM DTT, 50 mM Na₂HPO₄/NaH₂PO₄ [pH7.4] and, finally, concentrating with Centricon filters (Millipore). Solubility was monitored by SDS PAGE, coomassie blue staining and/or immunoblotting as discussed above. […] GST and lysozyme were purchased from Sigma.

[2] = target: the molecule itself; assay: sedimentation velocity analytical ultracentrifugation (self-association)
Protocol: Sedimentation Velocity Analytical Ultracentrifugation Experiments. A3G-2K3A was diluted to 0.15, 0.4, 0.8 or 1.2 mg/ml in a buffer containing 50 mM Na₂HPO₄/NaH₂PO₄ [pH7.4], 0.005% tween 20, 5 mM dithiothreitol and 50 μM ZnCl₂. Samples were then sedimented using a 4-hole rotor at 20° C. and 55,000 rpm. The rotor and cells were preequilibrated at 20° C. and the samples were kept on ice during protein preparation and dilution. Synthetic boundary cells were loaded with 430 μL of buffer and 420 μL of the appropriate sample solution. The cells were placed in the rotor and accelerated to 24,000 rpm while monitoring the transfer of the excess buffer in each cell. Subsequently, the rotor was stopped and then gently inverted to thoroughly mix the contents of the cells. The rotor was then equilibrated under vacuum at 20° C. and after a period of ˜1 hour at 20° C. the rotor was accelerated to 55,000 rpm. Interference scans were acquired at 1 minute intervals for 6 hours. The data for each loading concentration was analyzed using the program DcDt+ (version 2.0.7). See Philo, Anal. Biochem. 354, 238-246 (2006); and Philo, Anal. Biochem. 279, 151-163 (2000). The complete data set for A3G-2K3A was analyzed using Sedphat v4.4b using the model of a hybrid local continuous distribution and global discrete species. Schuck, Anal. Biochem. 320, 104-124 (2003). […]

B1: A3G198-384 (enzyme)
chain: DPPTFTFNFNNEPWVRGRHETYLCYEVERMHNDTWVLLNQRRGFLCNQAPHKHGFLEGRHAELCFLDVIPFWKLDLDQDYRVTCFTSWSPCFSCAQEMAKFISKNKHVSLCIFTARIYDDQGRCQEGLRTLAEAGAKISIMTYSEFKHCWDTFVDHQGCPFQPWDGLDEHSQDLSGRLRAILQNQEN
notes: also called CTD
Does B1 bind [1]?
Result: no binding (tested: 1 mg (approx. 1 mL))

B2: A3G-2K3A (enzyme)
chain: DPPTFTFNFNNEPWVRGRHETYLCYEVERMHNDTWVKLNQRRGFLANQAPHKHGFLEGRHAELCFLDVIPFWKLDLDQDYRVTCFTSWSPCFSCAQEMAKFISKNKHVSLCIKTARIYDDQGRAQEGLRTLAEAGAKISIMTYSEFKHCWDTFVDHQGAPFQPWDGLDEHSQDLSGRLRAILQNQEN
notes: released from the GST fusion with PreScission protease
Does B2 bind [2]?
Result: no binding (tested: 0.15, 0.4, 0.8 or 1.2 mg/ml)
